Assay [1] addresses T1, Recombinant human IL-23 receptor (IL-23R) extracellular domain (ECD) protein (human, UniProt Q5VWK5 24-355).
T1 construct: also called human IL-23R ECD; hu IL-23R ECD
T1 sequence: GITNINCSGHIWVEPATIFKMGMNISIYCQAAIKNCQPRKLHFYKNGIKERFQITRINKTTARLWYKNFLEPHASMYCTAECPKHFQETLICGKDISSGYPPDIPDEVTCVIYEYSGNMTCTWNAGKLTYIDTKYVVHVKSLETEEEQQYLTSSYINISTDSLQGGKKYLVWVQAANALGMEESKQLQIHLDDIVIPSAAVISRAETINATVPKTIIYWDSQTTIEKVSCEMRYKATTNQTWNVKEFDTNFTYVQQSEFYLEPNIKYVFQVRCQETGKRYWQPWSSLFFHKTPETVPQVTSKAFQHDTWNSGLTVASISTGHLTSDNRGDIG
As to the kind of experiment: SPR Biacore 8K, supernatant, analysis 2. The procedure: (§1) Affinity by SPR using Biacore 8K. Affinity measurements using Surface Plasmon Resonance (SPR) were performed using a Biacore 8K system (Cytiva). […] Approximately 9000-10000 RU (response units) of mAbs were immobilized. The kinetic experiments were performed at 25° C. in running buffer 1× of (HBS-P+ Buffer 10× (Cytiva #BR100671)+100 μg/ml BSA). To perform kinetic experiments, approximately 150 RU of mAbs were captured followed by injections of human IL-23R or rat IL-23R at concentrations ranging from 0.8 nM to 500 nM (in a 5-fold serial dilution). The association phase was monitored for 3 minutes at 50 μL/min, then followed by 30 minutes of buffer flow (dissociation phase). […] The collected data were processed using Biacore insight Evaluation software (Version 3.0.12.15655). The kinetic analysis of the data was performed using a Langmuir 1:1 binding model. The result for each mAb was reported in the format of Ka (On-rate), Kd (Off-rate) and KD (equilibrium dissociation constant).
In general terms: Surface plasmon resonance follows binding to a sensor surface in real time, without labels.

Assay [2] deals with T2, rat IL-23R extracellular domain (ECD) protein (rat).
T2 construct: also called rat IL-23R ECD; F1LX96 amino acids 24-354
T2 chain: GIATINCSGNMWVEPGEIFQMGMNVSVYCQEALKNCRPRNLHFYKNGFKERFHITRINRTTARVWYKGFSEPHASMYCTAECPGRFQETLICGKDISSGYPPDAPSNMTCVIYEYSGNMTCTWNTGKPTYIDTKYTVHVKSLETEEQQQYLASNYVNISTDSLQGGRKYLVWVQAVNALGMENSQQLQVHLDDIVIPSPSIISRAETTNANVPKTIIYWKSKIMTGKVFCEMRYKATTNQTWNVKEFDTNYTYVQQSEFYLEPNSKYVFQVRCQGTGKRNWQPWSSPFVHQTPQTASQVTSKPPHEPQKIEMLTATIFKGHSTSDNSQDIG
The assay is described as follows: SPR Biacore 8K, supernatant. The procedure:
as §1

Assay [3] has as its target T3, human IL-23R expressed on the cell surface of stably transfected iLite and HEK cell lines (human, UniProt Q5VWK5 24-629).
T3 construct: whole, on cells; Same receptor on two transfected cell lines; the cell line is named under assay; also called human IL-23R iLite cells; human IL-23R HEK cells
T3 sequence (looked up): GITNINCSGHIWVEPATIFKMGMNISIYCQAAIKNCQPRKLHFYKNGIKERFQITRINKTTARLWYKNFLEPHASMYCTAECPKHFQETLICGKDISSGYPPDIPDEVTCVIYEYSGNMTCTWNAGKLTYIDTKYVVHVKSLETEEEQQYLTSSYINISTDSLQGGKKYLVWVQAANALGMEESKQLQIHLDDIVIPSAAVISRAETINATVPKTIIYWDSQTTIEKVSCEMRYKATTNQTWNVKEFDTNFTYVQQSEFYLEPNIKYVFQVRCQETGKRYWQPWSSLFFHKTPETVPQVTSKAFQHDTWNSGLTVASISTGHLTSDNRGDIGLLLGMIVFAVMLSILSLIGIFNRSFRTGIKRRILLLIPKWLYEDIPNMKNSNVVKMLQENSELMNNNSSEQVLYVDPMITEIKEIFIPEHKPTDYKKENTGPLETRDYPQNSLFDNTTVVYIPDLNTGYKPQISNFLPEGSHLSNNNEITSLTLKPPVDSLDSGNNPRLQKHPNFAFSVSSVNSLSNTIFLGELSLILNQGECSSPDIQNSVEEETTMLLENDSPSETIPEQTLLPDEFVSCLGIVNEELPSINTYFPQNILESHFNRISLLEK
As to the kind of experiment: flow cytometry on human IL-23R HEK cells, Expt D (8-point, 96well). The method in brief: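 Serially diluted IL-23R mAbs bound to mixed HEK-IL-23R and parental HEK cells for 30 min at 37 °C, in duplicate. After washes, 647 detection antibody geometric MFI measured on single viable (Sytox Green-negative) cells and fitted to a variable-slope dose-response against log mAb concentration.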
A general note: Flow cytometry measures light scatter and fluorescence of single cells or particles in a stream.

For assay [4], the target named is T3, human IL-23R expressed on the cell …. As to the kind of experiment: flow cytometry on human IL-23R HEK cells, Expt E (11-point, 384well). In a few lines:
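Antibody bound to HEK-IL-23R cells 30 min at 37 °C over 11 concentrations; after washes, Sytox Green added and cells run on iQue. Geometric MFI of 647 detection antibody on single viable cells fitted by variable-slope dose–response.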

In general, Kd refers to the concentration at which binding is half-saturated. In general, koff refers to the first-order rate constant of dissociation. Broadly, the kon is the rate constant with which the complex forms. A word on the EC50: it is the concentration giving half of the maximal effect. Low values mean higher potency in that assay, high ones lower potency in that assay.

B1: I23RB81 (antibody, mouse IgG2a, kappa, V domains shown)
VH: DVQLQESGPGLVAPSQSLSITCTVSGFSLTSYAINWVRQPPGKGLEWLGVIWTGGGTNYNSALKSRLSISKDNSKSQLFLKMNSLQTDDTARYYCARNRDYSNYRWYFDVWGAGTSVTVSS
VL: DIVMTQSHKFMSTSVGDRVSIICKASQDVSTAVAWYQQKPGQSPKLLIYSASYRYTGVPDRFTGSGSGTDFTFTISSVQAEDLAVYYCQQHYSTPLTFGAGTRLEIKR
notes: mouse immunization; mouse IgG2a/kappa
B1: in assay [1], the Kd was 8.89 nM, the koff stood at 0.00173 s⁻¹ and the kon was 195000 M⁻¹ s⁻¹. The binding result in assay [2] is reported as “no binding (tested: 500 nM)”.

B2: I23RB148 (antibody, mouse IgG2a, kappa, V domains shown)
VH: DVQLQESGPDLVKPSQSLSLTCTVTGYSITSGYNWHWIRQFPGNKLEWMGYIHSSGTTNYSPSLRSRLSITRDTSKNQFFLQLNSVTTEDTATYYCTRQLGLKAMEYWGQGTTLTVSS
VL: DIVMTQSHKFMSTSVGDRVSLTCKASQEVRTAVAWYQQKPGQPPKLLIYSASYRYTGVPDRFTGSGSGTDFTFTIISVQAEDLAVYYCQQHYTTPYSFGSGTKLEIKR
notes: immunization; mouse IgG2a/kappa
Regarding B2, the EC50 in assay [3] amounted to 0.3 nM. Also, in assay [4], the EC50 stood at 6 nM and the “MFI (6.4 nM)” value came to 203000 MFI.

B3: I23RB5 (antibody, mouse IgG2a, kappa, V domains shown)
VH: QVQLVQSGAEVKKPGSSVKVSCKASGGTFSSYAISWVRQAPGQGLEWMGGIIPIFGTANYAQKFQGRVTITADESTSTAYMELSSLRSEDTAVYYCARDSYYSTVTYYYFDYWGQGTLVTVSS
VL: not shown
notes: phage display; human V regions, mouse IgG2a/kappa constant regions; also called negative control mAb
B3: the binding result in assay [2] was “no binding (tested: 500 nM)”.

B4: I23RB87 (antibody, mouse IgG2a, kappa, V domains shown)
VH: EFQLQQSGPELVKPGTSVKMSCKASGYTFTNYVMHWVKQKPGQGLEWIGYINPYDASPKYNEKFKGKAILTSDKSSSTAYMELSSLTSEDSAVYYCTRDAKLDYFDYWGQGTTLTVSS
VL: DIVMTQTTSSLSASLGDRVTISCRASQDISNYLNWYQQKPDGTVKLLIYYTSRLHSGVPSRFSGSGSGTDFSLTISNLEQEDIATYFCQQGITLPWTFGAGTKLELKR
notes: as for B1
For the molecule B4, in assay [1], the Kd amounted to 10.9 nM, the koff was 0.000945 s⁻¹ and the kon is 86500 M⁻¹ s⁻¹. The binding result in assay [2] is reported as “no binding (tested: 500 nM)”.

B5: I23RB144 (antibody, mouse IgG2a, kappa, V domains shown)
VH: EVQLQQSGPELVKPGASVKMSCKASGYTFTSYIIHWVKQKPGQGLEWIGYIDPYNDDTKYNEKFKGKATLTSDKSSSTAYMEFSSLTSEDSAVYYCARLGSINYYDGSYFDYWGQGTSVTVSS
VL: DIVMTQSPLTLSVIIGQSASISCKSSQSLLDSDGKTYLNWLLQRPGQSPKRLMYLVSKLDSGVPDRFTGSGSGTDFTLKISRVEAEDLGVYYCWQGIHFPLTFGSGTRLEIKR
notes: as for B2
Take B5: the EC50 was 13.4 nM in assay [3] and above 50 nM in assay [4]. The “MFI (6.4 nM)” value in assay [4] was 46200 MFI.

B6: I23RB102 (antibody, mouse IgG2a, kappa, V domains shown)
VH: QVQLQQPGAELVKPGASVKVSCKASGYTFTKYWINWMNQRPGQGLEWIGNIYPGSISTNYNEKFKSKVTLTVDISSSTAYMQLSSLTSDDSAVYYCARGDFYALDYWGQGTTLTVSS
VL: DIQMTQSPASLSVSVGETVTITCRASENIYSHITWYQLKQGKSPQLLVYASTNLADDVPSRFSGSGSGTQYSLKINSLLSEDFGTYYCQHFWGTPWTFGGGTKLEMKR
notes: as for B1
As for B6, in assay [1], the Kd worked out at 18.5 nM, the off-rate constant (koff) worked out at 0.00873 s⁻¹ and the kon is 471000 M⁻¹ s⁻¹. Further, the binding result in assay [2] is listed as “no binding (tested: 500 nM)”.

B7: I23RB80 (antibody, mouse IgG2a, kappa, V domains shown)
VH: DVQLQESGPGLVQPSQSLSITCTVSGFSLTSYGVHWVRQSPGKGLEWLGVIWSGVSTDYNAAFISRLSISKDNSKSQVFFKMNSLQADDTAIYYCARSRGSYYFDYWGQGTTLTVSS
VL: DIVMTQSQKFMSTSEGDRVNITCKASQNIRTAVAWYQQKPGQSPKPLIYLASNRHTGVPDRFTGSGSGTDFTLTISNVQSEDLAEYFCLQHWNYPLTFGAGTKLELKR
notes: as for B1
Regarding B7, in assay [2], the binding result is “no binding (tested: 500 nM)”.

These data come from patent publication US20250179196A1 (Janssen / Centocor, published 2025).
